Among the data in PMC6222646, “HIV-1 Integrase-Targeted Short Peptides Derived from a Viral Protein R Sequence” (Molecules : A Journal of Synthetic Chemistry and Natural …, 2018) are 3'-P IC50 (in vitro IN 3'-processing assay) and ST IC50 (in vitro IN strand transfer assay) values, retold here.

In this test the target is HIV-1 integrase (IN) (HIV-1).

Where no end group is shown, it is not given here.

B1: peptide 1b (FIHFRIG-amide) (peptide)
peptide: FIHFRIG-NH2
B1: the 3'-P IC50 (in vitro IN 3'-processing assay) was found to be 31.5 µM and the ST IC50 (in vitro IN strand transfer assay) is 7.3 µM.

B2: peptide 1c (Ac-FIHFRIG-amide) (peptide)
peptide: Ac-FIHFRIG-NH2
Regarding B2, the 3'-P IC50 (in vitro IN 3'-processing assay) amounted to 23.5 µM and the ST IC50 (in vitro IN strand transfer assay) is 4.7 µM.
